Laboratory results as given in patent publication US7279304B2, “Methods for preparation of macrocyclic molecules and macrocyclic molecules prepared thereby” (President and Fellows of Harvard College, priority 2000, dated 2007).

Legend:
Test in all cases: purified protein, by the assay type
Format in all cases: biochemical
[1] = substrate: CC(=O)NCCSC(=O)[C@H](C)NC(=O)[C@H](CCCN)NC(=O)[C@@H](NC(=O)[C@H](Cc1ccc(O)cc1)NC(=O)[C@H](CCC(N)=O)NC(=O)[C@H](CC(N)=O)NC(=O)[C@@H](Cc1ccccc1)NC(=O)[C@H](Cc1ccccc1)NC(=O)[C@@H]1CCCN1C(=O)[C@H](N)Cc1ccccc1)C(C)C; details: other: Table 1; macrocyclization of peptide-SNAC substrate; 25 mM MOPS, pH 7.0
Procedure: (§1) Macrocyclization reactions were carried out in 25 mM MOPS, pH 7.0 in a total volume of 400 μL. Reactions were initiated by addition of TycC TE and quenched at various time points by the addition of 25 μL 1.7% TFA/water, flash frozen in liquid nitrogen and stored at −80° C. (for Ex. 13, reactions were quenched by the addition of sodium phosphate, pH 5.3, to 100 mM). The reactions were then thawed, 85 μL acetonitrile added, and analyzed by analytical HPLC with monitoring at 220 nm (20% to 80% acetonitrile in 0.1% TFA/water, or in 25 mM potassium phosphate, pH 5.3 for Ex. 13, over 35 minutes, Vydac protein and peptide C18 column). Initial rates were calculated using 1 minute time points. Peptide-SNAC and reaction product concentrations were determined for all Tyr-containing peptides based on the estimated extinction coefficient ε (280 nm)=1,280 M^−1 cm^−1, which agrees with the experimentally determined ε (280 nm) of Ex. 1. For peptide-SNACs not containing Tyr, ε (220 nm) was determined experimentally, and concentrations of corresponding cyclic products determined by assuming equal ε (220 nm) values for the peptide-SNAC and cyclic product.

[2] = substrate: CC(=O)NCCSC(=O)[C@H](CC(C)C)NC(=O)[C@H](CCCN)NC(=O)[C@@H](NC(=O)[C@H](C)NC(=O)[C@H](CCC(N)=O)NC(=O)[C@H](CC(N)=O)NC(=O)[C@@H](Cc1ccccc1)NC(=O)[C@H](Cc1ccccc1)NC(=O)[C@@H]1CCCN1C(=O)[C@H](N)Cc1ccccc1)C(C)C; details: other: Table 1; macrocyclization of peptide-SNAC substrate; 25 mM MOPS, pH 7.0
Procedure: as §1

[3] = substrate: CC(=O)NCCSC(=O)[C@H](CC(C)C)NC(=O)[C@H](CCCN)NC(=O)[C@@H](NC(=O)[C@H](CC(C)C)NC(=O)[C@@H](NC(=O)[C@@H]1CCCN1C(=O)[C@@H](Cc1ccccc1)NC(=O)[C@H](CC(C)C)NC(=O)[C@H](CCCN)NC(=O)[C@@H](NC(=O)[C@H](CC(C)C)NC(=O)[C@@H](NC(=O)[C@@H]1CCCN1C(=O)[C@H](N)Cc1ccccc1)C(C)C)C(C)C)C(C)C)C(C)C; details: other: Table 2; cyclization of peptide-SNAC substrates of 6-14 amino acids
Procedure: as §1

[4] = substrate: CC(=O)NCCSC(=O)[C@H](CC(C)C)NC(=O)[C@H](CCCN)NC(=O)[C@@H](NC(=O)[C@H](CC(C)C)NC(=O)[C@@H]1CCCN1C(=O)[C@@H](Cc1ccccc1)NC(=O)[C@H](CC(C)C)NC(=O)[C@H](CCCN)NC(=O)[C@@H](NC(=O)[C@H](CC(C)C)NC(=O)[C@@H]1CCCN1C(=O)[C@H](N)Cc1ccccc1)C(C)C)C(C)C; details: other: Table 2; cyclization of peptide-SNAC substrates of 6-14 amino acids
Procedure: as §1

[5] = substrate: CC(=O)NCCSC(=O)[C@H](CC(C)C)NC(=O)[C@H](CCCN)NC(=O)[C@@H](NC(=O)[C@H](Cc1ccc(O)cc1)NC(=O)[C@H](C)NC(=O)[C@H](CC(N)=O)NC(=O)[C@@H](Cc1ccccc1)NC(=O)[C@H](Cc1ccccc1)NC(=O)[C@@H]1CCCN1C(=O)[C@H](N)Cc1ccccc1)C(C)C; details: other: Table 1; macrocyclization of peptide-SNAC substrate; 25 mM MOPS, pH 7.0
Procedure: as §1

[6] = substrate: CC(=O)NCCSC(=O)[C@H](CC(C)C)NC(=O)[C@H](CCCN)NC(=O)[C@@H](NC(=O)[C@H](Cc1ccc(O)cc1)NC(=O)[C@H](CCC(N)=O)NC(=O)[C@H](C)NC(=O)[C@H](CC(N)=O)NC(=O)[C@@H](Cc1ccccc1)NC(=O)[C@H](Cc1ccccc1)NC(=O)[C@@H]1CCCN1C(=O)[C@H](N)Cc1ccccc1)C(C)C; details: other: Table 1; macrocyclization of peptide-SNAC substrate; 25 mM MOPS, pH 7.0
Procedure: as §1

[7] = substrate: CC(=O)NCCSC(=O)[C@H](CC(C)C)NC(=O)[C@H](CCCN)NC(=O)[C@@H](NC(=O)[C@H](Cc1ccc(O)cc1)NC(=O)[C@H](CCC(N)=O)NC(=O)[C@H](CC(N)=O)NC(=O)[C@@H](Cc1ccccc1)NC(=O)[C@H](C)NC(=O)[C@@H]1CCCN1C(=O)[C@H](N)Cc1ccccc1)C(C)C; details: other: Table 1; macrocyclization of peptide-SNAC substrate; 25 mM MOPS, pH 7.0
Procedure: as §1

[8] = substrate: CC(=O)NCCSC(=O)[C@H](CC(C)C)NC(=O)[C@H](CCCN)NC(=O)[C@@H](NC(=O)[C@H](Cc1ccc(O)cc1)NC(=O)[C@H](CCC(N)=O)NC(=O)[C@H](CC(N)=O)NC(=O)[C@@H](Cc1ccccc1)NC(=O)[C@H](Cc1ccccc1)NC(=O)[C@H](C)NC(=O)[C@H](N)Cc1ccccc1)C(C)C; details: other: Table 1; macrocyclization of peptide-SNAC substrate; 25 mM MOPS, pH 7.0
Procedure: as §1

[9] = substrate: CC(=O)NCCSC(=O)[C@H](CC(C)C)NC(=O)[C@H](CCCN)NC(=O)[C@@H](NC(=O)[C@H](Cc1ccc(O)cc1)NC(=O)[C@H](CCC(N)=O)NC(=O)[C@H](CC(N)=O)NC(=O)[C@H](Cc1ccccc1)NC(=O)[C@@H]1CCCN1C(=O)[C@H](N)Cc1ccccc1)C(C)C; details: other: Table 1; macrocyclization of peptide-SNAC substrate; 25 mM MOPS, pH 7.0
Procedure: as §1

[10] = substrate: CC(=O)NCCSC(=O)[C@H](CC(C)C)NC(=O)[C@H](CCCN)NC(=O)[C@H](C)NC(=O)[C@H](Cc1ccc(O)cc1)NC(=O)[C@H](CCC(N)=O)NC(=O)[C@H](CC(N)=O)NC(=O)[C@@H](Cc1ccccc1)NC(=O)[C@H](Cc1ccccc1)NC(=O)[C@@H]1CCCN1C(=O)[C@H](N)Cc1ccccc1; details: other: Table 1; macrocyclization of peptide-SNAC substrate; 25 mM MOPS, pH 7.0
Procedure: as §1

B1: TycC TE (excised TE domain protein from the tyrocidine NRPS) (Brevibacillus parabrevis) (protein)
chain: FESRYGTAILLNQETARNVFCFTPIGAQSVYYQKLAAEIQGVSLYSFDFIQDDNRMEQYIAAITAIDPSGPYTLMGYSSGGNLAFEVAKELEERGYGVTDIILFDSYWKDKAIERTVAETENDIAQLFAEIGENTEMFNMTQEDFQLYAANEFVKQSFVRKTVSYVMFHNNLVNTGMTTAAIHLIQSELEADEEAPVAAKWNESAWANATQRLLTYSGHGIHSRMLAGDYASQNASILQNILQELFILK
notes: excised TE domain protein from the tyrocidine NRPS (TycC TE); made in house
B1 gave a Km [1] of 6 µM, a Km [2] of 15 µM and a Km [3] of 5 µM. It also gave a kcat [3] of 0.1 s⁻¹, a Km [4] of 6 µM and a kcat [4] of 0.367 s⁻¹. It also gave a Km [5] of 4 µM, a Km [6] of 20 µM and a Km [7] of 6 µM. It also gave a Km [8] of 3 µM, a Km [9] of 6 µM and a Km [10] of 9 µM.
